Results from article PMC5031971.
pKd: −log10 of the molar value.

Target: T1, CCR7 (human) (UniProt P32248)
T1 sequence: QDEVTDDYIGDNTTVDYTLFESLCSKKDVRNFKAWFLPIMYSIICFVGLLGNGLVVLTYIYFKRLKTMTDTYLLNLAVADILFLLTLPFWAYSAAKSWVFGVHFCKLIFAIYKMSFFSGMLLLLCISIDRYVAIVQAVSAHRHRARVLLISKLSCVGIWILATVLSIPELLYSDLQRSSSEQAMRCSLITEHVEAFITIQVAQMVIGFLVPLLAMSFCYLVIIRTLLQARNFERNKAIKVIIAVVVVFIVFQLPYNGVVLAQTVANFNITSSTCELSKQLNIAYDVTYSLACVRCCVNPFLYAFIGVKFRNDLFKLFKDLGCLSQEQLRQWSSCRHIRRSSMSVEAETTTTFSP
Test: flow cytometry, live cells
Conditions: H9 cells (CCR7 positive), Cy3-RNA; 2'-F C and 2'-F U (all pyrimidines); Flow cytometry: 2.5e5 cells in 100 uL binding buffer, 30 min, room temperature; refolding/washing buffer DPBS pH 7.0-7.4, 1 mM CaCl2, 1 mM MgCl2, 2.7 mM KCl …

Row | Sequence | pKd
1 | GGGAGGACGAUGCGGAAUUCGUCAAAGUCGUUUAUUUCGUCUGUGCAGACGACUCGCCCGA [C-2A] | 7.19
2 | GGGAGGACGAUGCGGUGCCGCACAUUAGUCUCUGGUUGCCCACGCCAGACGACUCGCCCGA [DD9-9] | 6.95
